Data from patent US10428327B2, “Compositions and methods for enhancing homologous recombination” (LIFE TECHNOLOGIES CORPORATION, priority 2016, dated 2019).
Oligonucleotides are written 5' to 3', each unit as a sugar letter and its base; * is a phosphorothioate linkage, no mark a phosphodiester; rarer units and linkages stand in square brackets, end groups in braces. Plain capitals give the bases only. d = 2'-deoxy (DNA); {P} = phosphate

Columns and labels:
Assay type in all cases: cell-based
[1] = test system: eBFP locus in HEK293 cells expressing eBFP; assay: EcoRI restriction digestion of PCR-amplified eBFP locus (FLAG tag/EcoRI insertion); settings: FIG. 11A, donor configurations, sequential delivery, 48 hours
Description: (§1) FIG. 11. Insertion of a FLAG tag along with an EcoRI site using dsDNA donor with single-stranded overhangs. (A) Various donor DNA molecules containing a 30-base FLAG tag along with an EcoRI site were designed and synthesized, including single-stranded DNA donor (ssDNA), blunt-end dsDNA donor (blunt), dsDNA donor with 5′ overhang (5′), dsDNA donor with 3′ overhang (3′). The length of overhangs varied from 6 nucleotides (6), 15 nucleotides (15) to 30 nucleotides (30). The 3′ and 5′ ends of the oligonucleotides harbored two consecutive phosphorothioate-modified bases (Table 4). The short dsDNA donors with and without overhangs were prepared by annealing two short DNA oligonucleotides. […] At 48 hours post transfection, the eBFP locus was PCR-amplified. The resulting PCR fragments were analyzed by the genomic cleavage and detection assays to determine the percentage of Indel or subjected to restriction digestion with EcoRI to determine the percentage of digestion. (B) Length of 3′ overhang. […] Alternatively, a dsDNA donor with 30-base 3′ overhang but without phosphorothioate modification (30-3′n) was used. The percentage of digestion with EcoRI was determined at 48 hours post transfection. (C) Dose effect. […] The eBFP loci were PCR-amplified. The resulting PCR fragments were analyzed by EcoRI digest. (D) Sequencing verification. The PCR fragments were cloned into E. coli and 192 clones were randomly picked for sequencing. The relative percentage of wild type (wt), NHEJ, and HDR clones derived from either ssDNA donor (ssDNA) or dsDNA with 3′ overhangs (3′ overhang) was plotted. The white rectangles represented the population of clones that contained the insert but with a point mutation. Examples of edited clones were shown in (E) (not representing the actual percentages of NHEJ and HDR). The underlined sequences represented the FLAG tag along with an RI site. FIG. 11 discloses SEQ ID NOs: 15-24, respectively, from top to bottom.
To create homologous recombination (HR) assays, a series of gRNAs flanking the insertion site within the EmGFP gene were designed and synthesized (Table 4). Each individual gRNA was combined with GENEART™ […]™ Cas9 Nuclease to form the Cas9 protein/gRNA ribonucleoprotein complexes (Cas9 RNPs). The Cas9 RNPs were then used to transfect cells via NEON® electroporation. The genomic cleavage efficiency was then evaluated using the GENEART® Genomic Cleavage Detection kit at 48 hours post transfection. The gRNAs with highest editing efficiencies and also in close proximity to the insertion site were selected for the subsequent HR assays. For donor design of a single-stranded oligonucleotide, typically the mutation site was positioned at the center flanked by 30 to 50 nucleotides on each side. For asymmetric donor design, 30 nucleotides were placed on either the left or right arm and then 50 or 67 nucleotides on the right or left arm respectively, in both PAM and non-PAM strands. For design of a dsDNA oligonucleotide with single-stranded overhangs, the insertion element was overlapped in the center flanked by various lengths of ssDNA oligonucleotide on each side. By annealing two single-stranded oligonucleotides at 95° C. for 3 minutes, dsDNA donor molecules with either a 5′ protrusion or a 3′ protrusion were generated. To measure homologous recombination efficiency, the donor DNA was either co-transfected with Cas9 RNPs or delivered sequentially into cells via electroporation. At 48 hours post transfection, the gain of EmGFP function in reporter cell lines was determined by flow cytometric analysis with an Attune® NxT Acoustic Focusing Cytometer (Thermo Fisher Scientific). Alternatively, the genomic loci were PCR-amplified using the corresponding primers and then subjected to GENEART® Genomic Cleavage Detection assay or restriction digestion. The resulting PCR products were also subjected to TOPO cloning. Typically, 96 colonies were randomly picked for sequencing. […]

[2] = test system: eBFP locus in HEK293 cells expressing eBFP; assay: Genomic cleavage and detection assay at eBFP locus after Cas9 RNP and FLAG/EcoRI donor; settings: sequential delivery, 48 hours post transfection
Description: as §1
The genomic cleavage efficiency was measured by GENEART® Genomic Cleavage Detection kit according to manufacturer's instructions. The primer sequences for PCR amplification of each genomic locus are described in Table 4. Cells were analyzed at 48 to 72 hours post transfection. The cleavage efficiencies were calculated based on the relative agarose gel band intensity, which were quantified using an […]® gel documentation system running […]®, Version 3.4.0.0. ProteinSimple (San Jose, Calif., USA).
To extend this concept, we hypothesized that a dsDNA donor harboring single-stranded overhangs would facilitate HDR to higher levels than with blunt ends. To test this hypothesis, we designed and generated a series of donor molecules with either blunt end, 5′ end protrusion or 3′ end protrusion by annealing two small single-stranded oligonucleotides. A single-stranded DNA donor was used as a control. The 5′ and 3′ ends of oligonucleotides were protected with two consecutive phosphorothioate-modified bases (Table 3). For proof of concept, we inserted a 30 nucleotide FLAG epitope tag along with an EcoRI site into the BFP gene stably expressed in HEK293 cells. The gRNA was designed to target the top DNA strand. The length of single-stranded overhangs varied from 6 nucleotides to 30 nucleotides. The oligonucleotides were denatured and re-annealed prior to transfection forming the structures described in FIG. 11A. […] Co-delivery of Cas9 RNPs and donor DNA gave lower HDR efficiencies. At 48 hours post transfection, the genomic locus was PCR-amplified and the editing efficiencies were determined using a GCD assay. […] When the PCR fragments were subjected to restriction digestion with EcoRI to identify properly inserted constructs, only the donor DNA molecules containing 30-base single-stranded overhangs at the 3′ ends produced the expected digested fragments (30-3′ in FIG. 11, panel A). […]

eBFP genomic locus = assay: Sequencing verification of eBFP locus, 1 nt substitution (96 clones); settings: sequencing of 96 clones; for Relative percentage HDR / Relative percentage NHEJ / Relative percentage wt: 1 nt substitution
Procedure: FIG. 8. Effects of oligonucleotide length and modification on HDR. (A) PAM ssDNA (6 nt insertion). […] Various length of PAM ssDNA oligonucleotide was normalized to either equal mass or equal molarity. Samples in the absence of donor (+gRNA) or gRNA (−gRNA) served as controls. The percentages of GFP-positive cells were determined by flow cytometry at 48 hours post transfection. (B) PAM ssDNA (1 nt substitution). […] The percentages of GFP-positive cells were determined by flow cytometry at 48 hours post transfection. (C) Verification by sequencing. The eBFP genomic locus was PCR-amplified, followed by cloning and Sanger sequencing of 96 samples. The relative percentage of wild type (wt), NHEJ, and HDR was plotted. (D) Examples of mutations. Examples of edited clones (not representing the actual percentages of NHEJ and HDR). FIG. 8 discloses SEQ ID NOs: 4-14, respectively, from top to bottom.
(§2) To create homologous recombination (HR) assays, a series of gRNAs flanking the insertion site within the EmGFP gene were designed and synthesized (Table 4). Each individual gRNA was combined with GENEART™ […]™ Cas9 Nuclease to form the Cas9 protein/gRNA ribonucleoprotein complexes (Cas9 RNPs). The Cas9 RNPs were then used to transfect cells via NEON® electroporation. The genomic cleavage efficiency was then evaluated using the GENEART® Genomic Cleavage Detection kit at 48 hours post transfection. The gRNAs with highest editing efficiencies and also in close proximity to the insertion site were selected for the subsequent HR assays. For donor design of a single-stranded oligonucleotide, typically the mutation site was positioned at the center flanked by 30 to 50 nucleotides on each side. For asymmetric donor design, 30 nucleotides were placed on either the left or right arm and then 50 or 67 nucleotides on the right or left arm respectively, in both PAM and non-PAM strands. For design of a dsDNA oligonucleotide with single-stranded overhangs, the insertion element was overlapped in the center flanked by various lengths of ssDNA oligonucleotide on each side. By annealing two single-stranded oligonucleotides at 95° C. for 3 minutes, dsDNA donor molecules with either a 5′ protrusion or a 3′ protrusion were generated. To measure homologous recombination efficiency, the donor DNA was either co-transfected with Cas9 RNPs or delivered sequentially into cells via electroporation. At 48 hours post transfection, the gain of EmGFP function in reporter cell lines was determined by flow cytometric analysis with an Attune® NxT Acoustic Focusing Cytometer (Thermo Fisher Scientific). Alternatively, the genomic loci were PCR-amplified using the corresponding primers and then subjected to GENEART® Genomic Cleavage Detection assay or restriction digestion. The resulting PCR products were also subjected to TOPO cloning. Typically, 96 colonies were randomly picked for sequencing. The sequencing data were analyzed using VECTOR NTI ADVANCE® 11.5 software (Thermo Fisher Scientific).
It has been reported that relatively short single-stranded oligonucleotides containing 25-61 bases homologous to the target sequence were capable of correcting a single point mutation (Igoucheva, O., Alexeev, V., Yoon, K., Targeted gene correction by small single-stranded oligonucleotides in mammalian cells, Gene Ther. 8(5):391-399 (2001)). […]

[3] = test system: HEK293 cells stably expressing eBFP; assay: HDR assay, conversion of eBFP to GFP by flow cytometry; settings: oligonucleotide length and modification, sequential delivery, 1 nt substitution, 48 hours
Description: To generate a HEK293FT stable cell line expressing eBFP, an eBFP ORF was synthesized by GENEART® custom DNA synthesis (Thermo Fisher Scientific) and then cloned into pDONAR221 vector. Using GATEWAY® recombination technology (Thermo Fisher Scientific), the eBFP ORF was transferred to pLenti6.2-DEST Gateway Vector and then verified by sequencing. Lentivirus was generated using VIRAPOWER® kit as described in the manual. To generate stable cell line, HEK293FT cells were transduced with 0.1 MOI of Lentivirus expressing eBFP. Three days post transduction cells were selected on 5 μg/mL Blasticidine antibiotics for 2 weeks. Cells expressing eBFP were then collected and diluted to […] in complete medium and plated into 96 well plates for single cell clone. After 2 weeks clones were isolated and verified for eBFP expression by flow cytometer. In a reporter assay using a stable eBFP-expressing HEK293 cell line, the substitution of C to T in eBFP gene converts His67 to Tyr67, generating a GFP variant (Table 5).
as §2
For each homologous recombination assay, 1.5 μg of Cas9 protein and 360 ng of gRNA were added to Resuspension Buffer R to a final volume of 7 μl, but limiting the total volume of Cas9 protein plus gRNA to less than 1 μl. The gRNA could be diluted in Buffer R if the concentration was too high. Upon mixing, the sample was incubated at room temperature for 5 to 10 minutes to form Cas9 RNPs. Meanwhile, […]™ HEK293 cells expressing either eBFP or disrupted EmGFP were detached from culture flask with TRYPLE™ Express Enzyme and then counted. Aliquots of 1×10^6 cells were washed once with DPBS without Ca^2+ and Mg^2+ and the cell pellets were resuspended in 50 μl of Resuspension Buffer R. A 5 μl aliquot of cell suspension was mixed with 7 μl of Cas9 RNPs. […] The electroporated cells were transferred to 300 μl of […]. […]

[4] = listed as 80-base modified oligonucleotide

B1: blunt: blunt-end dsDNA donor, FLAG tag plus EcoRI site, annealed SEQ ID 75 and 76 (nucleic acid)
chain 1: dG*dA*dCdTdAdCdAdAdAdGdAdCdGdAdTdGdAdCdGdAdCdAdAdGdAdAdTdTdC*dT*dT
chain 2: dA*dA*dGdAdAdTdTdCdTdTdGdTdCdGdTdCdAdTdCdGdTdCdTdTdTdGdTdAdG*dT*dC
modifications: annealed double-stranded DNA donor, further chemistry not fully specified
- Avg (% digestion) [1]: 0.00%
- Avg (% Indels) [2]: 68.50%

B2: PS80: phosphorothioate 80-mer ssDNA, BFP point mutation, SEQ ID 49 (nucleic acid)
DNA: {P}-dG*dC*dTdGdCdCdCdGdTdGdCdCdCdTdGdGdCdCdCdAdCdCdCdTdCdGdTdGdAdCdCdAdCdCdCdTdGdAdCdCdTdAdCdGdGdCdGdTdGdCdAdGdTdGdCdTdTdCdAdGdCdCdGdCdTdAdCdCdCdCdGdAdCdCdAdCdAdT*dG*dA
- overall genome modification efficiency (eBFP genomic locus): ~94%
- Relative percentage HDR (eBFP genomic locus): 40.4%
- Relative percentage NHEJ (eBFP genomic locus): 53.8%
- Relative percentage wt (eBFP genomic locus): 5.8%
- Relative percentage HDR (eBFP genomic locus; [4]): Approximately 40%
- Relative percentage NHEJ (eBFP genomic locus; [4]): approximately 54%
- Relative percentage wt (eBFP genomic locus; [4]): approximately 6%
- Avg (% GFP+ cells) [3]: 44.3%
- Avg (% GFP+ cells) [3, 4]: approximately 45%

B3: 6-3′: dsDNA donor with 6 nucleotide 3′ overhangs, annealed SEQ ID 79 and 80 (nucleic acid)
chain 1: GACTACAAAGACGATGACGACAAGAATTCTTACGGCG
chain 2: AAGAATTCTTGTCGTCATCGTCTTTGTAGTCGGTCAG
modifications: chemistry not fully specified
- Avg (% digestion) [1]: 0.00%
- Avg (% Indels) [2]: 78.50%

B4: 15-5′: dsDNA donor with 15 nucleotide 5′ overhangs, annealed SEQ ID 81 and 82 (nucleic acid)
chain 1: dG*dT*dGdAdCdCdAdCdCdCdTdGdAdCdCdGdAdCdTdAdCdAdAdAdGdAdCdGdAdTdGdAdCdGdAdCdAdAdGdAdAdTdTdC*dT*dT
chain 2: dG*dC*dAdCdTdGdCdAdCdGdCdCdGdTdAdAdGdAdAdTdTdCdTdTdGdTdCdGdTdCdAdTdCdGdTdCdTdTdTdGdTdAdG*dT*dC
modifications: Two annealed DNA oligonucleotides with 5' overhangs, further chemistry not fully specified
- Avg (% digestion) [1]: 0.00%
- Avg (% Indels) [2]: 69.50%

B5: 6-5′: dsDNA donor with 6 nucleotide 5′ overhangs, annealed SEQ ID 77 and 78 (nucleic acid)
chain 1: dC*dT*dGdAdCdCdGdAdCdTdAdCdAdAdAdGdAdCdGdAdTdGdAdCdGdAdCdAdAdGdAdAdTdTdC*dT*dT
chain 2: dC*dG*dCdCdGdTdAdAdGdAdAdTdTdCdTdTdGdTdCdGdTdCdAdTdCdGdTdCdTdTdTdGdTdAdG*dT*dC
modifications: Two annealed DNA oligonucleotides with 5' overhangs, further chemistry not fully specified
- Avg (% digestion) [1]: 0.00%
- Avg (% Indels) [2]: 56.50%
